Measured values: patent publication US20060104978A1, “Methods and compositions for PDGF-C activation and inhibition” (LUDWIG INSTITUTE FOR CANCER RESEARCH, priority 2003, published 2006)

Experiments:
latent PDGF-DD = target: T1, latent PDGF-DD (Homo sapiens, UniProt Q9GZP0); test: Cotransfection assay in COS-1 cells: protease plus full-length PDGF-D; type: cell-based; conditions: COS-1 conditioned medium, immunoblot
T1 construct: cotransfected with full-length PDGF-C (Li et al, 2000), full-length PDGF-D (Bergsten et al, 2001); expressed in transfected cells; host or cells: COS-1 cells
Description: (§1) A cotransfection assay was established to identify serine proteases able to cleave and activate latent PDGF-CC. Expression plasmids encoding the relevant enzymes and full-length PDGF-C were cotransfected into COS-1 cells, and aliquots of the conditioned media from the transfectants were subjected to SDS-PAGE and immunoblotting using antibodies to the growth factor domain of PDGF-C. […] As a specificity control, the ability of tPA and NT to use full-length PDGF-DD as the substrate in the cotransfection assay was analysed. […] One difference in the latter results, as compared with the results from the cotransfection assay, was that purified tPA generated a second intermediate species of 32 kDa using latent PDGF-CC as the substrate. […]
To test the endogenous expression of PDGF-CC, subconfluent AG1523 cells and primary fibroblast cultures were cultured in serum-free DMEM overnight. […] In the case of the primary cultures, total protein concentration was measured and normalized (Bradford, 1976). […] PDGF-C and PDGF-D were detected by immunoblotting using affinity-purified polyclonal rabbit antibodies against PDGF-C (Li et al, 2000) and PDGF-D (Bergsten et al, 2001), respectively. The His6-tagged proteins were detected using an anti-His monoclonal antibody (C-terminal, Invitrogen). tPA was detected using sheep polyclonal antibodies against human tPA (ab9030, Abcam).

latent PDGF-CC = target: T2, latent PDGF-CC (Homo sapiens, UniProt Q9NRA1); test: Cotransfection assay in COS-1 cells: protease plus full-length PDGF-C; type: cell-based; conditions: COS-1 conditioned medium, immunoblot, 22 kDa species under reducing conditions
T2 construct: cotransfected with full-length PDGF-C (Li et al, 2000), full-length PDGF-D (Bergsten et al, 2001); expressed in transfected cells; host or cells: COS-1 cells
T2 sequence (Q9NRA1 23-345): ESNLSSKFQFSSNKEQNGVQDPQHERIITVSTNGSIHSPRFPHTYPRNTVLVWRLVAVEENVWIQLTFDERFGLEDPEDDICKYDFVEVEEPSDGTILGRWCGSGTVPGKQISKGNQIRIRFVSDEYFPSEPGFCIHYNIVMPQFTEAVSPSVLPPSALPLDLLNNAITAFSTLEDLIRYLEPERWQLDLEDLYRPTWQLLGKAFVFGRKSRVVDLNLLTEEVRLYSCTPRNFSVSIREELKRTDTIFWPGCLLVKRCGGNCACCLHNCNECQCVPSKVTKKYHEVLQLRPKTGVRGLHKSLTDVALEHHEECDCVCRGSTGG
Description: as §1, with “substrate. It is possible that this intermediate is the result of digestion by plasmin contamination in the tPA preparation, since the size of the fragment is similar to that of plasmincleaved PDGF-CC previously reported (Li et al, 2000).” for “substrate.”
To test the endogenous expression of PDGF-CC, subconfluent AG1523 cells and primary fibroblast cultures were cultured in serum-free DMEM overnight. […] In the case of the primary cultures, total protein concentration was measured and normalized (Bradford, 1976). […]

B1: neurotrypsin: human neurotrypsin, trypsin-like serine protease cloned from AG1523 cells (protein)
chain: FDSVLNDSLHHSHRHSPPAGPHYPYYLPTQQRPPRTRPPPPLPRFPRPPRALPAQRPHALQAGHTPRPHPWGCPAGEPWVSVTDFGAPCLRWAEVPPFLERSPPASWAQLRGQRHNFCRSPDGAGRPWCFYGDARGKVDWGYCDCRHGSVRLRGGKNEFEGTVEVYASGVWGTVCSSHWDDSDASVICHQLQLGGKGIAKQTPFSGLGLIPIYWSNVRCRGDEENILLCEKDIWQGGVCPQKMAAAVTCSFSHGPTFPIIRLAGGSSVHEGRVELYHAGQWGTVCDDQWDDADAEVICRQLGLSGIAKAWHQAYFGEGSGPVMLDEVRCTGNELSIEQCPKSSWGEHNCGHKEDAGVSCTPLTDGVIRLAGGKGSHEGRLEVYYRGQWGTVCDDGWTELNTYVVCRQLGFKYGKQASANHFEESTGPIWLDDVSCSGKETRFLQCSRRQWGRHDCSHREDVSIACYPGGEGHRLSLGFPVRLMDGENKKEGRVEVFINGQWGTICDDGWTDKDAAVICRQLGYKGPARARTMAYFGEGKGPIHVDNVKCTGNERSLADCIKQDIGRHNCRHSEDAGVICDYFGKKASGNSNKESLSSVCGLRLLHRRQKRIIGGKNSLRGGWPWQVSLRLKSSHGDGRLLCGATLLSSCWVLTAAHCFKRYGNSTRSYAVRVGDYHTLVPEEFEEEIGVQQIVIHREYRPDRSDYDIALVRLQGPEEQCARFSSHVLPACLPLWRERPQKTASNCYITGWGDTGRAYSRTLQQAAIPLLPKRFCEERYKGRFTGRMLCAGNLHEHKRVDSCQGDSGGPLMCERPGESWVVYGVTSWGYGCGVKDSPGVYTKVSAFVPWIKSVTKL
cleavage and activation of latent PDGF-DD by the coexpressed protease (latent PDGF-DD): neither of the two enzymes was able to cleave and activate latent PDGF-DD | cleavage of latent PDGF-CC by the coexpressed protease (latent PDGF-CC): lacked proteolytic activity toward latent PDGF-CC
